Reference: PMC10980755, “Cooperative nucleic acid binding by Poly ADP-ribose polymerase 1”

How the values were obtained:
WT-PARP1 (full-length) [1] = molecular target: T1, WT-PARP1 (full-length) (UniProt P09874 1-1014); experiment: EMSA; monomer-equivalent Kmono; n=1.9±0.2; ω=67.3±10.8; EMSA: 25 mM Tris pH 8.0, 150 mM NaCl, 50 mM arginine, 1 mM EDTA, 0.1 mM TCEP, 1 mg/mL BSA, 20 °C, 30 min; 0.06 µM nucleic acid; settings: protein: recombinant; tags: His; label: 5'-32P
∆CAT-PARP1 [2] = molecular target: T2, ∆CAT-PARP1 (UniProt P09874 1-662, del663-1014); experiment: EMSA; monomer-equivalent Kmono; n=1.8±0.1; ω=86.1±20.3; EMSA: 25 mM Tris pH 8.0, 150 mM NaCl, 50 mM arginine, 1 mM EDTA, 0.1 mM TCEP, 1 mg/mL BSA, 20 °C, 30 min; 0.06 µM nucleic acid; settings: protein: recombinant; tags: His; label: 5'-32P
T2 sequence (P09874 1-662, stated change not applied): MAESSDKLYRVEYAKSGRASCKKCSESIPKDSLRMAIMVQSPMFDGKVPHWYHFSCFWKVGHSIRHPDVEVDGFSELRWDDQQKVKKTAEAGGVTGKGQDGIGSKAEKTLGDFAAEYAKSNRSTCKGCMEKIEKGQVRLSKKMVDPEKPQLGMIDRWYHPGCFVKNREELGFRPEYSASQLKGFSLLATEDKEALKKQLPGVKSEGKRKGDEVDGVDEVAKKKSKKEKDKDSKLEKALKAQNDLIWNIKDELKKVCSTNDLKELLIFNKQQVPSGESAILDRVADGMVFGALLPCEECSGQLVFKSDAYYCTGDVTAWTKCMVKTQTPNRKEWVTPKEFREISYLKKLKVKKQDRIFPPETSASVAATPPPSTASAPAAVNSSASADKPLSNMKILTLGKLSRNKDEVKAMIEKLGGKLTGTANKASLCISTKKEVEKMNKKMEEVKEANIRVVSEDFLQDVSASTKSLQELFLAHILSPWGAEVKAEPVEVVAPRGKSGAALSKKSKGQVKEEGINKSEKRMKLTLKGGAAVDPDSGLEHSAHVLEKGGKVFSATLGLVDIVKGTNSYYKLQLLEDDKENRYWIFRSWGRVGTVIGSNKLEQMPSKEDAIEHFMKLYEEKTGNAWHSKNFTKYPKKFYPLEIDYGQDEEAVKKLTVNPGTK

∆Zn1∆Zn2-PARP1 [3] = molecular target: T3, ∆Zn1∆Zn2-PARP1 (UniProt P09874 216-1014, del1-215); experiment: EMSA; monomer-equivalent Kmono; n=2.9±0.2; ω=104.3±31.1; EMSA: 25 mM Tris pH 8.0, 150 mM NaCl, 50 mM arginine, 1 mM EDTA, 0.1 mM TCEP, 1 mg/mL BSA, 20 °C, 30 min; 0.06 µM nucleic acid; settings: protein: recombinant; tags: His; label: 5'-32P
T3 sequence (P09874 216-1014, stated change not applied): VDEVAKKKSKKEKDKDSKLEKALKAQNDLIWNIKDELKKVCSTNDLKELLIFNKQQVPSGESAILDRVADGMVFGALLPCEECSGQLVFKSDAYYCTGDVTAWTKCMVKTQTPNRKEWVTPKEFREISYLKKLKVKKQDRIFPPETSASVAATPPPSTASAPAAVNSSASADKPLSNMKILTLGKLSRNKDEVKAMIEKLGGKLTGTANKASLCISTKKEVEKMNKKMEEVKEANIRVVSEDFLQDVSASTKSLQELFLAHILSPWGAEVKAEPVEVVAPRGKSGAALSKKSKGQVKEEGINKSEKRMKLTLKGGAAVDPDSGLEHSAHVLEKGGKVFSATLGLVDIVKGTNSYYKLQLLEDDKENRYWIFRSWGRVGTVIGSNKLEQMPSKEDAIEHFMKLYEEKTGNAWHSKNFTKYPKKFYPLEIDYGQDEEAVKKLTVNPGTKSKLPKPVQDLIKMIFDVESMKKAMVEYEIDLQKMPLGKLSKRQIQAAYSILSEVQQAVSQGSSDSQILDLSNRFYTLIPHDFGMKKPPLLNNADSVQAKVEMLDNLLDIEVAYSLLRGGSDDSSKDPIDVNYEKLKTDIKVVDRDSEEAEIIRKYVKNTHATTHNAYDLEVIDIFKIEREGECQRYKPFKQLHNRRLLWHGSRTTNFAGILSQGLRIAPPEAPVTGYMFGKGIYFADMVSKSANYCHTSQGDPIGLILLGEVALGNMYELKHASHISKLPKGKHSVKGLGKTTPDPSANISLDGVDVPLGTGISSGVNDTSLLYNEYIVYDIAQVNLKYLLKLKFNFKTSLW

WT-PARP1 (full-length) [4] = molecular target: T1, WT-PARP1 (full-length); experiment: EMSA; monomer-equivalent Kmono; n=1.8±0.1; ω=24.7±8.6; EMSA: 25 mM Tris pH 8.0, 150 mM NaCl, 50 mM arginine, 1 mM EDTA, 0.1 mM TCEP, 1 mg/mL BSA, 20 °C, 30 min; 0.06 µM nucleic acid; settings: protein: recombinant; tags: His; label: 5'-32P
∆CAT-PARP1 [5] = molecular target: T2, ∆CAT-PARP1; experiment: EMSA; Kmono; n=1.0±0.1; EMSA: 25 mM Tris pH 8.0, 150 mM NaCl, 50 mM arginine, 1 mM EDTA, 0.1 mM TCEP, 1 mg/mL BSA, 20 °C, 30 min; 0.06 µM nucleic acid; settings: protein: recombinant; tags: His; label: 5'-32P
∆CAT-PARP1 [6] = molecular target: T2, ∆CAT-PARP1; experiment: EMSA; monomer-equivalent Kmono; n=1.9±0.1; ω=49.0±12.9; EMSA: 25 mM Tris pH 8.0, 150 mM NaCl, 50 mM arginine, 1 mM EDTA, 0.1 mM TCEP, 1 mg/mL BSA, 20 °C, 30 min; 0.06 µM nucleic acid; settings: protein: recombinant; tags: His; label: 5'-Cy3
∆Zn1∆Zn2-PARP1 [7] = molecular target: T3, ∆Zn1∆Zn2-PARP1; experiment: EMSA; monomer-equivalent Kmono; n=1.7±0.1; ω=56.7±14.4; EMSA: 25 mM Tris pH 8.0, 150 mM NaCl, 50 mM arginine, 1 mM EDTA, 0.1 mM TCEP, 1 mg/mL BSA, 20 °C, 30 min; 0.06 µM nucleic acid; settings: protein: recombinant; tags: His; label: 5'-Cy3
WT-PARP1 (full-length) [8] = molecular target: T1, WT-PARP1 (full-length); experiment: EMSA; monomer-equivalent Kmono; n=2.2±0.1; ω=51.4±10.1; EMSA: 25 mM Tris pH 8.0, 150 mM NaCl, 50 mM arginine, 1 mM EDTA, 0.1 mM TCEP, 1 mg/mL BSA, 20 °C, 30 min; 0.06 µM nucleic acid; settings: protein: recombinant; tags: His; label: 5'-Cy3
WT-PARP1 (full-length) [9] = molecular target: T1, WT-PARP1 (full-length); experiment: EMSA; monomer-equivalent Kmono; n=4.1±0.2; ω=82.6±20.5; EMSA: 25 mM Tris pH 8.0, 150 mM NaCl, 50 mM arginine, 1 mM EDTA, 0.1 mM TCEP, 1 mg/mL BSA, 20 °C, 30 min; 0.06 µM nucleic acid; settings: protein: recombinant; tags: His; label: 5'-32P on one strand (EMSA); unlabeled in AUC; blunt
∆CAT-PARP1 [10] = molecular target: T2, ∆CAT-PARP1; experiment: EMSA; monomer-equivalent Kmono; n=3.9±0.2; ω=139.9±59.5; EMSA: 25 mM Tris pH 8.0, 150 mM NaCl, 50 mM arginine, 1 mM EDTA, 0.1 mM TCEP, 1 mg/mL BSA, 20 °C, 30 min; 0.06 µM nucleic acid; settings: protein: recombinant; tags: His; label: 5'-32P on one strand (EMSA); unlabeled in AUC; blunt
∆Zn1∆Zn2-PARP1 [11] = molecular target: T3, ∆Zn1∆Zn2-PARP1; experiment: sedimentation velocity AUC; 10 mM Tris pH 8.0, 100 mM NaCl, 4 °C; 1.8 µM DNA, 7.2 µM protein; reaction boundary, rapid equilibrium; EMSA: 25 mM Tris pH 8.0, 150 mM NaCl, 50 mM arginine, 1 mM EDTA, 0.1 mM TCEP, 1 mg/mL BSA, 20 °C, 30 min; 0.06 µM nucleic acid; settings: protein: recombinant; tags: His; label: 5'-32P on one strand (EMSA); unlabeled in AUC; blunt

T1 sequence (P09874 whole entry): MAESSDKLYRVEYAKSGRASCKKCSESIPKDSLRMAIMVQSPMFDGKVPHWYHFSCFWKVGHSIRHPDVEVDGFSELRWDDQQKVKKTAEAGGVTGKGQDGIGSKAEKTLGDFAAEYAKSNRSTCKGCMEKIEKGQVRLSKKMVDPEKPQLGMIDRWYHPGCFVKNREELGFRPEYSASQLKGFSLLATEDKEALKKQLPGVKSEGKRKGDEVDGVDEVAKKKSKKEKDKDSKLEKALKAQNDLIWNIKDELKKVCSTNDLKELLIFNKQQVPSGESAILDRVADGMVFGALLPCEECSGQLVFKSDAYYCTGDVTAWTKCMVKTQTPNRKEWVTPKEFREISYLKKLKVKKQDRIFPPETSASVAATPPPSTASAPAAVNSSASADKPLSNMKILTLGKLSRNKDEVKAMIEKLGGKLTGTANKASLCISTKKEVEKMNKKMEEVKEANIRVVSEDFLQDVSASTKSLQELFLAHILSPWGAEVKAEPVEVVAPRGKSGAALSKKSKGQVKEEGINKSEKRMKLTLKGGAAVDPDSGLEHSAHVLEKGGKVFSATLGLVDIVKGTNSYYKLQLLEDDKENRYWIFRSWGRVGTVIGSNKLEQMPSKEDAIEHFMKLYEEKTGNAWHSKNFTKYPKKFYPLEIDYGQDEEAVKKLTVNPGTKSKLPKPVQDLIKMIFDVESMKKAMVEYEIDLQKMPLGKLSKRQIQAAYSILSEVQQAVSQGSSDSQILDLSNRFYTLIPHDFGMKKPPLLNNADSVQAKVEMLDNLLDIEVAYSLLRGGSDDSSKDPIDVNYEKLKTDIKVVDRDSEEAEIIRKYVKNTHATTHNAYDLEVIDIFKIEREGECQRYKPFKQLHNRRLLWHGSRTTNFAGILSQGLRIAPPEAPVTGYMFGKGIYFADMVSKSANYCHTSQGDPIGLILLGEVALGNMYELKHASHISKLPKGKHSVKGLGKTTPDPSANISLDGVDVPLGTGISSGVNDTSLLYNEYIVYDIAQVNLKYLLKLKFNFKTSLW

For UUUUUUUUUUUUUUUUUUUU (ssRNA) [U20 RNA], the Ka (WT-PARP1 (full-length) [1]) was 2.1e+08 M⁻¹, the Ka (∆CAT-PARP1 [2]) was 6.6e+06 M⁻¹ and the Ka (∆Zn1∆Zn2-PARP1 [3]) was 9.1e+07 M⁻¹.

CGTACGCGGGTTTAAACGA (ssDNA) [ss19-mer DNA] showed a Ka (WT-PARP1 (full-length) [4]) of 3.3e+06 M⁻¹ and a Ka (∆CAT-PARP1 [5]) of 114000 M⁻¹.

Binder TTTTTTTTTTTTTTTTTTTT (ssDNA) [Cy3-T20 DNA] has a Ka (∆CAT-PARP1 [6]) of 3.3e+06 M⁻¹, a Ka (∆Zn1∆Zn2-PARP1 [7]) of 2.5e+06 M⁻¹ and a Ka (WT-PARP1 (full-length) [8]) of 1.3e+07 M⁻¹.

B1: ds19-mer DNA (dsDNA)
DNA 1: CGTACGCGGGTTTAAACGA
DNA 2: TCGTTTAAACCCGCGTACG
With B1 the Ka (WT-PARP1 (full-length) [9]) was 1.2e+07 M⁻¹, the Ka (∆CAT-PARP1 [10]) was 1.3e+07 M⁻¹ and the binding result (∆Zn1∆Zn2-PARP1 [11]) was “binds”.
